# Test results published in the RNAGym collection of RNA variant scans (doi:10.1073/pnas.2313332121).
# B1: TPR t1 (parent)
# chain: GACCAAUCUGCCCUCAGAGCUCGAGAACAUCUUCGGAUGCAGAGGAGGCAGGCUUCGGUGGCGCGAUAGCGCCAACGUCCUCAACCUCCAAUGCAUCCCACCACAUGAUGAUGCCUGAAGAGCCUUGGUUUUUUG
# Variants of: B1
# Experiment: polymerase ribozyme fitness, log enrichment relative to wild type (log ratio); higher = more active; in vitro selection for triplet polymerase activity
# How it was run: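 Mutant libraries of both subunits of a heterodimeric triplet polymerase ribozyme were PCR-built, transcribed, and selected once in triplicate, with frozen incubation at −7 °C and capture of gel-excised extended constructs on streptavidin beads before RT-PCR. Illumina sequencing of input and output libraries was filtered to genotypes with ≥10 input reads and ≥1 read per output. Fitness is the logarithm of genotype enrichment over wild-type enrichment, using inverse-variance-weighted replicate averages. The logarithm is base 2.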
row,Variant,polymerase ribozyme fitness (log ratio)
1,A2U G10U A90C G122A,-3.13
2,A2C G69C A121U,-0.282
3,A2U G17A C28U A43U G61C G110A,-6.04
4,A2U C11G G122A,-0.62
5,C3U A6C C13A,-3.09
6,A2G G48U C53G C86U C98A C123G C124A,-6.57
7,A2U U7C G44C G52C C56A,-4.24
8,C3G U7G C88G C114U,-2.56
9,A2G C20A G63C C114A,-3.77
10,A2C G63U,-2.33
11,C3U A43C A50G C73U,-2.2
12,C3U A27C U130C,-2.28
13,C3U A84U,-0.78
14,A2C C13G C15U C72U,-4.37
15,A2G C40U U55C,-1
16,A2U C88G,-3.37
17,A2U C56A U106A C115G,-4.51
18,A2G A74C,-0.276
19,C3A G52U C123A,-0.759
20,A2C C49A,-1.83
21,C3U C12G A46C,-0.734

row,Variant,polymerase ribozyme fitness (log ratio)
1,C3G C22A,-4.35
2,A2U C49U,-3.77
3,A2U C8G C101G,-2.67
4,C3A C8A C53G C101A,-1.64
5,A2G G19U C62U C86U,-3.94
6,A2U A16G A27U A46G G60U U106A G110A,-5.21
7,C3U A41C G42A U78C U92G,-3.33
8,C3A G110C C123G,-4.82
9,C3U C12U C53G C56U U106A A111C C123G G127A,-5.21
10,C3G C70G,-4.26
11,C3A C72U G93U A111G,-3.35
12,A2C G47U U78C U112C,-1.88
13,C3A G61C,-3.47
14,A2G A29G,-1.34
15,C3U C15U U106G,-3.3
16,C3A C72A A111C,-1.3
17,C3U G39A U54G G120C,0.423
18,A2C C85U,-3.37
19,C3A G52U C72A C89G C104A G113U A119U C123G,-5.02
20,A2U C13G C62U,-2.85
21,A2G A16C C89A G120C U133A G135C,-2.39

row,Variant,polymerase ribozyme fitness (log ratio)
1,C3U C86A,-0.57
2,A2G G77U C86G G135U,-2.95
3,C3U C53G,-0.501
4,C3A G117C,-3.87
5,A2G A27U C73G C79G C104U,-6.8
6,A2U U38A G63A C88U,-4.16
7,A2C G10U A37C C64U U112C,-1.73
8,C3U G10U A29G G44U G57C C82U A105U G120C,-6.47
9,A2U C73U,-2.69
10,A2G U116A A121U,-0.583
11,A2G U59C C85U C124A,0.474
12,A2G A50U U81A,0.17
13,C3G U96A,-3.4
14,C3U C79A G113U,-5.54
15,C3U G39U G47A G117A,-4.33
16,C3A A37U C114U,-3.95
17,A2G C11A,-1.77
18,A2U G23U G60U C79U G110A,-6
19,A2U G93U,-2.62
20,C3U C28U G71A C89A C123G U130C,-4.19
21,C3A G10A C13A G36U C70A U129C,-5.83

row,Variant,polymerase ribozyme fitness (log ratio)
1,C3G G120A,-1.23
2,C3U C62G,-2.24
3,C3U C79G C97G A121G,-5.3
4,C3U C11U A37U C53U,-0.631
5,C3A C124G,1.55
6,A2U C28U C49A C101G U106A,-4.56
7,C3U C13G G48U A50U U92C G120A U131A,-3.5
8,A2G A5U G71U A111U G120A,-5.48
9,A2C G44A G113A,-4.5
10,C3U G39U C73A C98U,-2.51
11,C3A A6C A46G C49G G69C C104U,-3.86
12,A2U A5G U9G C13U C64U G122A,-1.31
13,C3G C56A C86G C104A,-5.13
14,A2C C102A,-3.35
15,C3A G48A C86U A121G G127C U131G U132A,-0.349
16,A2C C53U U81G,-4.15
17,A2G C34A U55A U112C,-0.554
18,C3U C22G G39U C49G C70U G110U,-5.2
19,C3A C8A C62A C97U,-2.46
20,C3A U14G A119U G120A,-1.62
